From publication PMC5382683, “Identified of a novel cis-element regulating the alternative splicing of LcDREB2”

Target: T1, RSZp21b (Oryza sativa, UniProt Q6K4N0 1-185)
T1 sequence: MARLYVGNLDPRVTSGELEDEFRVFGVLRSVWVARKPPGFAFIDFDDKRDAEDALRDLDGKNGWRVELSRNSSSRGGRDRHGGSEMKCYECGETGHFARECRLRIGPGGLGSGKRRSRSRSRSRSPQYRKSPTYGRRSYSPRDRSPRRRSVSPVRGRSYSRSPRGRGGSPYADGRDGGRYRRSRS
Experiment: EMSA; LightShift Chemiluminescent EMSA Kit (Pierce 20158) per manufacturer; 100-fold unlabeled probe as competitor; buffer, salt, pH, temperature not stated
Settings: protein: recombinant; tags: His (pET30a, Ni column)

Binder: ACUCUUGGCGCAGCAAAAGGGAGAUGCGC (ssRNA) [E3-2]
- binding result: binds
